# Patent US7192733B2, “Methods and means for modulating PGE synthase activity” (Karolinska Innovations AB, priority 1998, dated 2007)
# T1: human PGE synthase (Homo sapiens, UniProt O14684)
# T1 construct: made in house; host or cells: E. coli BL21 (DE3) pLysSL, vector pSP19T7LT; membrane fraction
# T1 sequence (O14684 1-152): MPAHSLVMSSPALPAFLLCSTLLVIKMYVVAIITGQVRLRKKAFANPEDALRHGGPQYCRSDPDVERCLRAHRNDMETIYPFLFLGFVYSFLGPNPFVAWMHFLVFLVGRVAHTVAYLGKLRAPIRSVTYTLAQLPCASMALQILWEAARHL
# B1: ratMGST1: rat microsomal glutathione S-transferase 1 expressed in bacteria, control membrane fraction (protein, UniProt P08011 2-155, looked up)
# Microsomal glutathione …: ADLKQLMDNEVLMAFTSYATIILAKMMFLSSATAFQRLTNKVFANPEDCAGFGKGENAKKFLRTDEKVERVRRAHLNDLENIVPFLGIGLLYSLSGPDLSTALIHFRIFVGARIYHTIAYLTPLPQPNRGLAFFVGYGVTLSMAYRLLRSRLYL
# B2: PGE synthase: human PGE synthase (SEQ ID NO: 2) expressed in E. coli, tested as bacterial membrane fraction (protein, listed as Homo sapiens)
# chain: T1 sequence (O14684 1-152)
# How the values were obtained:
# human PGE synthase = target: T1, human PGE synthase; test: PGE synthase enzyme assay (inhibition of PGE2 formation from PGH2); assay type: biochemical; details: 1 mM for 5 min prior to incubation; membrane fraction from bacteria expressing PGE synthase
# Description: (§1) The protein sample was diluted in potassium inorganic phosphate buffer (0.1 M, pH=7.4) containing 2.5 mM reduced glutathione. The reaction (total volume=100 μl) was started by the addition of 10 μM PGH2 with or without 0.1 μCi 3H PGH2 and terminated with 60 μl acetonitrile/HCl, lowering the pH to 3.2. In order to determine the formation of either PGF2α, PGE2 or PGD2, an aliquot (60 μl) was analyzed by reverse-phase-HPLC combined with UV detection (195 nm) and/or radioactivity detection using an online β-RAM detector (Inus System, Inc.). The reverse-phase HPLC column was Nova-Pak C18 (3.9×150 mm, 4 μm particle size) obtained from Waters. The mobile phase was water, acetonitrile and trifluoroacetic acid (70:30:0.007, by vol) with a flow rate of 1 ml/min.
# (§2) For analysis of 12-HHT, a mobile phase of methanol, water and acetic acid (70:30:0,01, by vol) was used and UV detection at 236 nm. The amounts of produced PGE2 and 12-HHT were quantified by integration of the areas under the eluted peaks at 195 and 236 nm, respectively.
# (§3) The membrane fraction (0.02 mg total protein/ml) isolated from bacteria expressing PGE synthase was incubated for 2 min in the presence of PGH2 (10 μM including 1 μCi 3H PGH2) and reduced glutathione (2.5 mM).
# PGH2 = test: PGE synthase activity of fractions from cells expressing recombinant protein (PGH2 to PGE2, RP-HPLC); assay type: biochemical; details: for PGE synthase activity: membrane fraction or microsomes of cells expressing the control protein
# Description: as §1, §2, §3
# In this experiment the various dilutions of the membrane fraction obtained from bacteria expressing PGE synthase were incubated in the presence of PGH2 (10 μM) and GSH (2.5 mM) for 2 min. The PGE2 formation was analyzed and quantified by RP-HPLC and UV detection at 195 nm as described in Materials and Methods above.
# The membrane fraction obtained from bacteria expressing PGE synthase (0.02 mg/ml) was incubated with PGH2 for the indicated times in the presence (filled circles) or absence (open circles) of glutathione. Filled triangles represent non-enzymatic (buffer only) PGE2 formation after incubation with PGH2. The product formation was analyzed by RP-HPLC and PGE2 was detected and quantified using UV absorbance at 195 nm.
# [1] = test system: 17.5 kDa protein from sheep seminal vesicles (PGE synthase activity); details: read-out: Km for PGH2; cited from earlier work
# [2] = test system: 180 kDa protein from sheep seminal vesicles (PGE synthase activity); details: larger (180 kDa) protein; read-out: Km for PGH2; cited from earlier work
# [3] = test system: PGE synthase expression in A549 cells; test: Induction of PGE synthase protein in A549 cells, Western blot; assay type: cell-based, human; details: 1 ng/ml, 24 h
# Description: Samples were diluted and boiled for two min in SDS-containing sample buffer (Laemmli, U. K. (1970) Nature 227, 680–5). Proteins were separated through 14% polyacrylamide gels (Novex) and electroblotted (Towbin, H., et al.(1979) PNAS USA 76, 4350–4) onto PVDF (Pall) membranes. Transfer efficiency was visualized using pre-stained standards (Novex). Membranes were then soaked for 1 h at 25° C. in Tris-buffered saline (100 mM Tris-HCl, pH=7.5, 150 mM NaCl) containing 0.1% (v/v) Tween and 5% (w/v) non-fat dried milk. The membrane was subsequently washed twice in 0.1% T-TBS followed by 1 h incubation at 25° C. with the indicated antiserum (1:2000 dilution) in 0.05% (v/v) T-TBS and 2% (w/v) non-fat dried milk. […]
# In order to investigate whether or not PGE synthase may also be regulated by this cytokine, A549 cells were cultured for 24 h in the presence of 1 ng/ml IL-1β. Normal cells as well as cells treated with IL-1β were subsequently analyzed for PGE synthase expression by SDS-PAGE followed by Western blotting.
# Total protein corresponding to 0.2×10^6 cells grown for 24 h in the presence (1 ng/ml) or absence of IL-1β was fractionated by SDS-PAGE and transferred to PVDF membrane. […] Also analyzed was the commercial available, partly purified, PGE synthase from sheep seminal vesicles (6 μg) as well as the membrane fraction from bacteria expressing human PGE synthase (5 μg).
molecule,measurement,setting,value
CCN1C(=O)C=CC1=O [N-ethylmaleimide],enzyme activity after treatment of the membrane fraction,human PGE synthase,abolished
"MGST2: microsomal glutathione S-transferase 2 expressed in Sf9 cells, microsomes [reference compound]",PGE synthase activity,PGH2,no PGE synthase activity
"CCCCC[C@H](O)/C=C/[C@@H]1[C@@H](C/C=C\CCCC(=O)O)[C@@H]2C[C@H]1OO2 (relative stereo) [PGH2, 15(S)-hydroxy-9α, 11α-peroxidoprosta-5-cis-13-trans-dienoic acid]",Km,[1],40 µM
same,Km,[2],150 µM
IL-1β: proinflammatory cytokine interleukin-1β,PGE synthase protein expression,[3],induced
B1,PGE synthase activity,PGH2,no PGE synthase activity
B2,glutathione dependent PGE synthase activity,"PGH2; bacterial membrane fraction, PGH2, reduced glutathione",0.25 µmol/min/mg
same,deduced specific activity,PGH2; estimating that 1% of the bacterial membrane protein is MGST1-L1,25 µmol/min/mg
same,specific activity under linear conditions (subtracting background formation),"PGH2; membrane fraction 0.02 mg/ml, PGH2 10 μM, GSH 2.5 mM",250 nmol/min/mg
